From EP2275116A1 come the findings set out here.

In the assay the target is human p21-activated kinase 1 (PAK1) (human) (UniProt Q13153). The assay can be described thus: cell-based or functional assay.
Sequence of UniProt Q13153 (Q13153 whole entry R237L/F379S, form in doubt): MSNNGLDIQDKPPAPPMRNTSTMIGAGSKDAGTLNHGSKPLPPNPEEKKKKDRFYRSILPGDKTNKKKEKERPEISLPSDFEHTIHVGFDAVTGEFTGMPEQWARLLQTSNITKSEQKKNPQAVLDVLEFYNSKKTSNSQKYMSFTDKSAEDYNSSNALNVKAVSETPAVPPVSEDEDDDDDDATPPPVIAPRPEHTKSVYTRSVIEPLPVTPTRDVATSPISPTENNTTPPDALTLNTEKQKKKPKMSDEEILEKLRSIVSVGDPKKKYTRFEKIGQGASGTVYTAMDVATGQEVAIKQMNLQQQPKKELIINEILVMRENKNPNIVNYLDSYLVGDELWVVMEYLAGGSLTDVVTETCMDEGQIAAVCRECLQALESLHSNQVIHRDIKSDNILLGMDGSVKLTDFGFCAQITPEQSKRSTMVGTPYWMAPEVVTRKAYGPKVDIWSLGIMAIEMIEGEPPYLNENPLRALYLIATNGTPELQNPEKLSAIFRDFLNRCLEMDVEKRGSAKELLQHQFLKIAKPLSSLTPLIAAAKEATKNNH

The substance “HA-tagged PAK1 inhibitory domain (PAK1 residues 83 to 149) (from UniProt P35465 83-149)” registered an inhibition of IL-1β induced expression of PGE2 in SW1353 cells (ELISA of supernatant) above 50%, an inhibition of IL-1β-induced expression of MMP13 in SW1353 cells (ELISA of supernatant) of 55% and an inhibition of basal MMP13 expression in non-stimulated SW1353 cells (ELISA of supernatant) above 80%.
